Patent US20190160148A1, “COMBINATION OF PEMBROLIZUMAB AND ABEMACICLIB FOR THE TREATMENT OF CANCER” (Eli Lilly and Company, priority 2016, published 2019)

Key:
[1] = tested on: CT26 syngeneic tumors; experiment: CT26 syngeneic tumor growth, concurrent dosing; assay type: in vivo, Balb/C mice; conditions: day 24; abemaciclib 50 mg/kg for 21 days; 178G7 500 μg/dose 1 time per week, 3 doses; versus vehicle
Source text: CT26 is also a well-known model for immunotherapy. Studies have shown it to be sensitive to inhibitors of a co-inhibitory immune checkpoint including, CTLA-4, PD-1, PD-L1 blockade. Established sensitivity of CT26, and well known range of therapeutic efficacy of immunotherapeutic intervention make it an appropriate model for screening the activity of checkpoint immunotherapies (Grosso and Jure-Kunkel, Cancer Immunity Vol. 13, p. 5, January 2013) (Duraiswamy et al, Cancer Research, Jun. 15, 2013 73; 3591).
CT26 is a murine model, and accordingly, antibodies used in the CT26 model must bind the mouse target protein. […]
Relative changes in tumor volume compared to control are analyzed at day 24, at the point where the most animals remained in all groups for proper statistical comparison. Relative changes in tumor volume (% ΔT/C) are calculated using the formula % ΔT/C=100×ΔT/ΔC, whereby T=mean tumor volume of the compound treated group, ΔT=mean tumor volume of the compound treated group minus the mean tumor volume on the baseline day, C=mean tumor volume of the control (vehicle) group, and ΔC=mean tumor volume of the control group minus the mean tumor volume on the baseline day. […]

[2] = target: PD-L1/PD-1 interaction (Mus musculus, UniProt Q9EP73); experiment: Blockade of PD-1 binding to PD-L1; conditions: anti-murine PD-L1 clone
PD-L1/PD-1 interaction, sequence (Q9EP73 19-290): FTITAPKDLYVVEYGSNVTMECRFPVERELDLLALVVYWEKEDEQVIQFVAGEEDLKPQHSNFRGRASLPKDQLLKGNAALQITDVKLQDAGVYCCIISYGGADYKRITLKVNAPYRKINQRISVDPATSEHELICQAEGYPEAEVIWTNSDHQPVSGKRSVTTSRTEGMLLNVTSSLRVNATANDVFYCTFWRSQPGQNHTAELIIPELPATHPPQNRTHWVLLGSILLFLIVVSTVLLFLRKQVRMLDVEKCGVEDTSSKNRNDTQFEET
Source text: CT26 is a murine model, and accordingly, antibodies used in the CT26 model must bind the mouse target protein. To model co-inhibitory immune checkpoint therapy, in particular blockade of PD-L1/PD-1 mediated inhibition, anti-murine PD-L1 clone, 178G7 (Known herein in the examples as: anti-PD-L1 antibody or anti-PD-L1 therapy or anti-PD-L1), is produced. The HC of 178G7 is SEQ ID NO: 11, and the LC of 178G7 is SEQ ID NO: 12. […] In particular, 178G7 is used as a a surrogate agents that prevent PD-1 mediated inhibition by PD-L1. as both 178G7 and pembrolizumab block the interaction of PD-1 and PD-L1. 178G7 competes with previously identified surrogate antibody 10F.9G2 known to block PD-L1/PD-1 interaction and is a known surrogate for anti-human antibodies in the clinic (Eppihimer et al. Microcirculation 2002:9(2):133).

## CCN1CCN(Cc2ccc(Nc3ncc(F)c(-c4cc(F)c5nc(C)n(C(C)C)c5c4)n3)nc2)CC1 [abemaciclib, [5-(4-ethyl-piperazin-1-ylmethyl)-pyridin-2-yl]-[5-fluoro-4-(7-fluoro-3-isopropyl-2-methyl-3H-benzoimidazol-5-yl)-pyrimidin-2-yl]-amine]
[1]
  %T/C (relative change in tumor volume compared to control): 22.3%

B1: Anti-PD-L1 antibody: anti-murine PD-L1 clone 178G7, HC SEQ ID NO: 11, LC SEQ ID NO: 12; surrogate that blocks PD-1/PD-L1 interaction (antibody)
heavy: QVQLQQSGADLAKPGSSVKISCKASGYNFNSYYINWIKQTTGQGLEYIGYINTVSGTTKYSEKFKGKATLTVDKSSSTAFMQLSSLTPDDSAVYYCARGTIVLDDYWGQGVKVTVSSAETTAPSVYPLAPGTALKSNSMVTLGCLVKGYFPEPVTVTWNSGALSSGVHTFPAVLQSGLYTLTSSVTVPSSTWPSQTVTCNVAHPASSTKVDKKIVPRNCGGDCKPCICTGSEVSSVFIFPSKPKDVLTITLTPKVTCVVVDISQDDPEVHFSWFVDDVEVHTAQTRPPEEQFNSTFRSVSELPILHQDWLNGRTFRCKVTSAAFPSPIEKTISKPEGRTQVPHVYTMSPTKEEMTQNEVSITCMVKGFYPPDIYVEWQMNGQPQENYKNTPPTMDTDGSYFLYSKLNVKKEKWQQGNTFTCSVLHEGLHNHHTEKSLSHSPGK
light: DIVMTQTPSSQAVSAGEKVTMSCKSSQSLLYNEKKKNYLAWYQQKPGQSPKLLIYWASTRESGVPDRFLGSGSGTDFTLTINSVQAEDLAVYYCQQSYDFPRTFGGGTKLELKRADAAPTVSIFPPSTEQLATGGASVVCLMNNFYPRDISVKWKIDGTERRDGVLDSVTDQDSKDSTYSMSSTLSLTKADYESHNLYTCEVVHKTSSSPVVKSFNRNEC
[1]
  %T/C (relative change in tumor volume compared to control): 56.1%
[2]
  blocking of PD-1 binding to PD-L1: blocks PD-1 binding to PD-L1
